# ± gives the standard deviation of the averaged measurements.
# Tested on: Saccharomyces cerevisiae
# Assay: protein stability index of tFT-peptide fusion (C-terminal peptide) (PSI (0-1 scale)); higher = more stable (slower turnover)
# Conditions: genetic background: cdc34-1; temperature: 37 C
# Method: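 MPS profiling in S. cerevisiae of the tFT-X12 degron library: putative degron peptides plus stable controls, 12 aa, fused to the C-terminus of a sfGFP-mCherry timer. Cells are FACS-sorted into 8 mCherry/sfGFP bins and deep-sequenced. PSI runs from 0 (unstable) to 1 (stable). Backgrounds are wild type, das1Δ and doa10Δ at 30 °C, and wild type, das1Δ, cdc34-1 and cdc53-1 at 37 °C; 2-3 technical replicates each.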
# 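Note: PSI is a weighted mean of sequencing reads over stability bins, variants kept only with over 10 reads, mCherry proximal and sfGFP distal, peptide attached via GGGS linker.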
row,Sequence,protein stability index
1,KNGNVEILIKCT,0.625 ± 0.081
2,KRNLLYNIIVWI,0.404 ± 0.024
3,KTSVLLCVSTSF,0.633 ± 0.0073
4,LAINVRRELLFF,0.613 ± 0.0093
5,LARRASCFWVRC,0.671 ± 0.015
6,LAVVCIHAVSSF,0.51 ± 0.042
7,LCAFLKLFILII,0.0906 ± 0.018
8,LCARVCITFNIV,0.517 ± 0.033
9,LCWLVHFFLWVS,0.35 ± 0.081
10,LESYGLRDSTSG,0.641 ± 0.05
11,LFCVCFYGRIFL,0.443 ± 0.017
12,LFFCYRVFLLVF,0.132 ± 0.01
13,LFFGFFLIYFLG,0.428 ± 0.048
14,LFFVVFFLLFLL,0.402 ± 0.0091
15,LFFWFMYLRRLI,0.252 ± 0.019
16,LFHSFFLYCLMS,0.56 ± 0.017
17,LFIFYCFFFLVR,0.27 ± 0.059
18,LFLEVCFFRLYF,0.511 ± 0.055
19,LFLLFLCLSSLF,0.561 ± 0.0098
20,LFLLSVNLLLGY,0.0581 ± 0.025
21,LFLPFLPTLALL,0.795 ± 0.029
22,LFLYDFIALRCS,0.46 ± 0.016
23,LFRGVWYYFLVR,0.486 ± 0.041
24,LFSSFFVFRLLV,0.322 ± 0.031
25,LFVFVLAGFCCV,0.352 ± 0.0073
26,LFVPVFSFGFVC,0.485 ± 0.0071

row,Sequence,protein stability index
1,LFWWCMVFISLI,0.3069 ± 0.0013
2,LFYVCPFVCFLC,0.554 ± 0.044
3,LGFFPSPVLCVF,0.104 ± 0.056
4,LGGVGTLVHCFV,0.615 ± 0.026
5,LGRYHPWLLFLC,0.261 ± 0.011
6,LHSDHLRIILRI,0.5966 ± 0.0013
7,LIAGTRRIPLFI,0.593 ± 0.048
8,LISGVCLRVKVG,0.55 ± 0.031
9,LKFSLLLPVQVI,0.327 ± 0.014
10,LLGHLFTMLVIY,0.211 ± 0.18
11,LLLLRCLWISHA,0.324 ± 0.053
12,LLPLLFFFLCLP,0.592 ± 0.058
13,LLPSPLLLYSLS,0.556 ± 0.03
14,LLRLCGFPLGVG,0.466 ± 0.027
15,LLRLPLLALLFV,0.236 ± 0.028
16,LLSAFPYLPVFA,0.277 ± 0.025
17,LLVRSFIFPLVY,0.3906 ± 0.0039
18,LLVVGPVRLVVH,0.214 ± 0.019
19,LLYPSKFCITAI,0.506 ± 0.024
20,LLYYMPELLILT,0.152 ± 0.0021
21,LMLIPRLLVGAH,0.181 ± 0.034
22,LPFFSFSPWWFY,0.773 ± 0.042
23,LPIFWVWFSVFR,0.232 ± 0.012
24,LPLHPHRSRYLV,0.593 ± 0.033
25,LPPPTPRSVLLN,0.644 ± 0.039
26,LPSPPSSPPLRP,0.6542 ± 0.0027

row,Sequence,protein stability index
1,LPSRWVPLPTPA,0.5362 ± 0.0003
2,LPTLDCPLHRLF,0.694 ± 0.026
3,LQCVYFVFFICF,0.2682 ± 0.0023
4,LQVPTLRLFVFF,0.584 ± 0.029
5,LRMSLLVFLLFA,0.312 ± 0.03
6,LRQKIIYWWLWL,0.478 ± 0.019
7,LRVLSVVRLSVW,0.479 ± 0.0067
8,LSARVFCFWFFS,0.586 ± 0.018
9,LSFLCFSTVLHC,0.557 ± 0.0096
10,LSFLFFRLCSFF,0.487 ± 0.066
11,LSLLCFVASVVA,0.168 ± 0.0083
12,LSLVIFIFLYCR,0.0945 ± 0.016
13,LSLWPIFGIIYC,0.46 ± 0.035
14,LSPPPLSFPFSA,0.704 ± 0.0072
15,LSVVVLVLCVLL,0.285 ± 0.028
16,LVGYCGAWACVV,0.642 ± 0.034
17,LVLCCGFWFRAV,0.619 ± 0.046
18,LVLGVEVCFVLG,0.102 ± 0.0073
19,LVPYLWWLVFAL,0.189 ± 0.015
20,LVVFGLVLSLLL,0.449 ± 0.013
21,LVVWASLVRVEG,0.271 ± 0.033
22,LVWDLFRCFSML,0.582 ± 0.018
23,LVWSGLIVVVGG,0.179 ± 0.024
24,LWAVGVATDWGG,0.706 ± 0.018
25,LWERRSRQLTMF,0.645 ± 0.056
26,LWGLVGVCLVLC,0.0679 ± 0.011

# Same assay, conditions: genetic background: cdc53-1; temperature: 37 C
row,Sequence,protein stability index
1,KNGNVEILIKCT,0.6278 ± 0.0034
2,KRNLLYNIIVWI,0.476 ± 0.051
3,KTSVLLCVSTSF,0.645 ± 0.021
4,LAINVRRELLFF,0.723 ± 0.021
5,LARRASCFWVRC,0.721 ± 0.011
6,LAVVCIHAVSSF,0.538 ± 0.069
7,LCAFLKLFILII,0.141 ± 0.076
8,LCARVCITFNIV,0.578 ± 0.054
9,LCWLVHFFLWVS,0.431 ± 0.0079
10,LESYGLRDSTSG,0.651 ± 0.032
11,LFCVCFYGRIFL,0.556 ± 0.038
12,LFFCYRVFLLVF,0.152 ± 0.0027
13,LFFGFFLIYFLG,0.4839 ± 0.0013
14,LFFVVFFLLFLL,0.446 ± 0.028
15,LFFWFMYLRRLI,0.238 ± 0.0044
16,LFHSFFLYCLMS,0.5796 ± 0.0031
17,LFIFYCFFFLVR,0.379 ± 0.087
18,LFLEVCFFRLYF,0.555 ± 0.037
19,LFLLFLCLSSLF,0.584 ± 0.012
20,LFLLSVNLLLGY,0.0949 ± 0.028
21,LFLPFLPTLALL,0.823 ± 0.013
22,LFLYDFIALRCS,0.55 ± 0.015
23,LFRGVWYYFLVR,0.5274 ± 0.0022
24,LFSSFFVFRLLV,0.432 ± 0.039
25,LFVFVLAGFCCV,0.436 ± 0.017
26,LFVPVFSFGFVC,0.558 ± 0.0077

row,Sequence,protein stability index
1,LFWWCMVFISLI,0.37 ± 0.015
2,LFYVCPFVCFLC,0.6288 ± 0.001
3,LGFFPSPVLCVF,0.104 ± 0.027
4,LGGVGTLVHCFV,0.635 ± 0.016
5,LGRYHPWLLFLC,0.451 ± 0.021
6,LHSDHLRIILRI,0.63 ± 0.036
7,LIAGTRRIPLFI,0.638 ± 0.022
8,LISGVCLRVKVG,0.597 ± 0.017
9,LKFSLLLPVQVI,0.3735 ± 0.0026
10,LLGHLFTMLVIY,0.157 ± 0.023
11,LLLLRCLWISHA,0.441 ± 0.029
12,LLPLLFFFLCLP,0.584 ± 0.0088
13,LLPSPLLLYSLS,0.578 ± 0.019
14,LLRLCGFPLGVG,0.54 ± 0.0086
15,LLRLPLLALLFV,0.227 ± 0.0089
16,LLSAFPYLPVFA,0.326 ± 0.048
17,LLVRSFIFPLVY,0.428 ± 0.018
18,LLVVGPVRLVVH,0.259 ± 0.0027
19,LLYPSKFCITAI,0.559 ± 0.03
20,LLYYMPELLILT,0.145 ± 0.028
21,LMLIPRLLVGAH,0.172 ± 0.0025
22,LPFFSFSPWWFY,0.808 ± 0.026
23,LPIFWVWFSVFR,0.243 ± 0.022
24,LPLHPHRSRYLV,0.691 ± 0.018
25,LPPPTPRSVLLN,0.737 ± 0.034
26,LPSPPSSPPLRP,0.57161 ± 0.00026

row,Sequence,protein stability index
1,LPSRWVPLPTPA,0.569 ± 0.024
2,LPTLDCPLHRLF,0.8 ± 0.0093
3,LQCVYFVFFICF,0.4 ± 0.016
4,LQVPTLRLFVFF,0.724 ± 0.033
5,LRMSLLVFLLFA,0.407 ± 0.033
6,LRQKIIYWWLWL,0.488 ± 0.021
7,LRVLSVVRLSVW,0.545 ± 0.023
8,LSARVFCFWFFS,0.635 ± 0.011
9,LSFLCFSTVLHC,0.606 ± 0.019
10,LSFLFFRLCSFF,0.551 ± 0.0081
11,LSLLCFVASVVA,0.195 ± 0.005
12,LSLVIFIFLYCR,0.123 ± 0.037
13,LSLWPIFGIIYC,0.4637 ± 0.0007
14,LSPPPLSFPFSA,0.753 ± 0.02
15,LSVVVLVLCVLL,0.403 ± 0.02
16,LVGYCGAWACVV,0.677 ± 0.021
17,LVLCCGFWFRAV,0.606 ± 0.038
18,LVLGVEVCFVLG,0.16 ± 0.011
19,LVPYLWWLVFAL,0.125 ± 0.023
20,LVVFGLVLSLLL,0.477 ± 0.006
21,LVVWASLVRVEG,0.3235 ± 0.003
22,LVWDLFRCFSML,0.7165 ± 0.001
23,LVWSGLIVVVGG,0.204 ± 0.064
24,LWAVGVATDWGG,0.7571 ± 0.0035
25,LWERRSRQLTMF,0.7649 ± 0.003
26,LWGLVGVCLVLC,0.0705 ± 0.004

# — the supplement of paper PMC10724198
